Data: article PMC7949046, “Human genetic variants disrupt RGS14 nuclear shuttling and regulation of LTP in hippocampal neurons” (The Journal of Biological Chemistry, 2020)

Target: T1, purified XPO1-GST (GST-CRM1, Exportin 1) (human, UniProt O14980 1-1071)
T1 construct: Results and legend name the protein of the pull-down XPO1-GST / GST-XPO1, but the methods say that CRM1/XPO1 was cleaved from the beads with TEV protease; also called GST-XPO1; CRM1/XPO1; source: E. coli BL21, purified (glutathione Sepharose 4B)
T1 sequence (O14980 whole entry): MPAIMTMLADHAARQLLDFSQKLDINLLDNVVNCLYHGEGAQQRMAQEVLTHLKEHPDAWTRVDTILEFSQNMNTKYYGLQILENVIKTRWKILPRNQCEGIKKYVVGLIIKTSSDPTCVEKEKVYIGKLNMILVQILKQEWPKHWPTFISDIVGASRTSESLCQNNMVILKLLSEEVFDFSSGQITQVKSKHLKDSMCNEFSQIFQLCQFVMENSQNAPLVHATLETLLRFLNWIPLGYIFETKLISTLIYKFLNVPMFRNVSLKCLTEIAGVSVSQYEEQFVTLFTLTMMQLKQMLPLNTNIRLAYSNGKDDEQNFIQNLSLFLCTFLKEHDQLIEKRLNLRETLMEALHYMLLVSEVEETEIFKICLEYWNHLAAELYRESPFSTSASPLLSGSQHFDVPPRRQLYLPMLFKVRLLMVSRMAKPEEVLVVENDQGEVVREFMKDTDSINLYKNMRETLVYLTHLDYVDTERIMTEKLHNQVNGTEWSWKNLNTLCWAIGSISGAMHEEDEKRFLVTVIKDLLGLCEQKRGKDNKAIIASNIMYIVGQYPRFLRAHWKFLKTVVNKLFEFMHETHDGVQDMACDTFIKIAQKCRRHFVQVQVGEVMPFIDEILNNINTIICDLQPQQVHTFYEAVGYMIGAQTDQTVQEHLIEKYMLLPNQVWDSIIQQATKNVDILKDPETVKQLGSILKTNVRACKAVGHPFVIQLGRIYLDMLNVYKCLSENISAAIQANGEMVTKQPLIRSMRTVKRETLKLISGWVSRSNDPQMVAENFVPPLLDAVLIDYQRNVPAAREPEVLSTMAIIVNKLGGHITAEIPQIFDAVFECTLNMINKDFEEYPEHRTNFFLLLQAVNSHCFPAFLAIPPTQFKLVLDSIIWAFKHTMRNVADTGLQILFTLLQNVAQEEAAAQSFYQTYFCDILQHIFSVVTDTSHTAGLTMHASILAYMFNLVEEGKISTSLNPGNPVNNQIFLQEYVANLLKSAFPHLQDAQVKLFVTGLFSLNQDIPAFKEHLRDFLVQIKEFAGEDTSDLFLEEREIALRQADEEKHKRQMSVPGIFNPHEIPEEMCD
Assay: pull-down; purified RGS14 mixed 2 h with purified XPO1-GST and His-Ran Q69L-GTP; His-Ran captured on Ni-NTA; Coomassie and immunoblot
Conditions: both partners purified

B1: recombinant RGS14 WT, purified from E. coli (natural protein, rat, UniProt O08773 1-544, looked up)
chain: MPGKPKHLGVPNGRMVLAVSDGELTSTSGSQAQGEGRGSSLSIHSLPSGPSSPFSTDEQPVASWAQSFERLLQDPRGLAYFTEFLKKEFSAENVTFWQACERFQQIPASDTKQLAQEAHNIYHEFLSSQALSPVNIDRQAWLSEEVLAQPRPDMFRAQQLQIFNLMKFDSYARFVKSPLYQECLLAEAEGRPLREPGSSHLGSPDTARKKPKLKPGKSLPLGVEELGQLPLAEGRPLRKSFRREMPGGAVNSALRRESQGSLNSSASLDLGFLAFVSSKSESHRKSLGSGEGESESRPGKYCCVYLPDGTASLALARPGLTIRDMLAGICEKRGLSLPDIKVYLVGKEQKALVLDQDCTVLADQEVRLENRITFQLELVGLERVVRISAKPTKRLQEALQPILAKHGLSLDQVVLHRPGEKQLVDLENLVSSVASQTLVLDTLPDAKTREASSIPPCRSQGCLPRTQTKDSHLPPLSSSLSVEDASGSTGKRQTCDIEGLVELLNRVQSSGAHDQRGLLRKEDLVLPEFLQLPSQRPGSQEAPP
notes: RGS14, rat; expressed as MBP-TEV-RGS14 (the constructs paragraph names pLic-GST); The methods call the fusion MBP-TEV-RGS14 but purify it on a glutathione column and name the vector pLic-GST; the carrier may have been GST; also called WT RGS14; not shown: MBP, N-terminal, cleaved
B1: binds.
